Source: patent US20240390497A1 (Stanford University, published 2024)

T1: human CD93/Fc fusion protein (human, UniProt Q9NPY3 22-580, limits assumed)
T1 construct: It was biotinylated or DyLight 650-conjugated for staining; also called CD93-Fc chimera protein; CD93-Fc biotinylated protein; not shown: Fc part
T1 sequence (looked up): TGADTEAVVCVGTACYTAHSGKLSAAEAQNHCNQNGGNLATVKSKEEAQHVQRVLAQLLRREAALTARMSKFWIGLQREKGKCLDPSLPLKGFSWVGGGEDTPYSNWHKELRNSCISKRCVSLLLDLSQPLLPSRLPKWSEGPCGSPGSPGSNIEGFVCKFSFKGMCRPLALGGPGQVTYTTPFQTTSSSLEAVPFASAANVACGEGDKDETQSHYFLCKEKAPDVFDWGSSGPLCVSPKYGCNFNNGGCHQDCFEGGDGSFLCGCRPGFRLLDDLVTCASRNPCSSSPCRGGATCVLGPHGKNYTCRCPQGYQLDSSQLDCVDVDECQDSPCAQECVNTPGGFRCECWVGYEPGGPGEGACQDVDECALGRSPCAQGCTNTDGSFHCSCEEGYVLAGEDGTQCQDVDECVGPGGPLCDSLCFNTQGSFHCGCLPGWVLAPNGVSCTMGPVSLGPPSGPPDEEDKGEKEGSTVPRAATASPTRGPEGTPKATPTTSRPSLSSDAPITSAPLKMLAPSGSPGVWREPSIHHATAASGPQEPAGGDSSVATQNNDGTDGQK


Biological target: T1, human CD93/Fc fusion protein
Test: ELISA on coated human CD93/Fc, HRP anti-human kappa secondary, OD490
Description: FIGS. 2A-2O are sets of graphs illustrating that CD93-CAR T cells exert anti-leukemic effects against AML in vitro. FIG. 2A is a bar chart showing that humanized (“HuF11-G1” and “HuF11-G1 TM”) and chimeric F11 (“ChF11-G1”) monoclonal antibodies bind human CD93 with similar affinity. Human CD93/Fc fusion protein was coated in a 96-well plate and different concentrations of the antibodies as indicated were added. HRP-conjugated anti-human Kappa antibody was used as a secondary antibody. CD93 binding activity was measured by reading signals at OD490 […]. FIG. 2B is a cartoon showing the structure of CD93-28z and CD93-BBz CARs. […] Cells were fed with new media every 2-3 days, analyzed for transduction efficiency and phenotype on day 10-11, and processed for downstream experiments. FIG. 2D is a bar graph showing comparing transduction efficiency for each of aCAR molecule and control (“Mock”), measured by flow cytometry on day 10 after T cell activation. […] FIG. 2F is a set of graphs comparing expression levels of markers of T cell activation/exhaustion, including LAG-3, PD-1, TIM-3, and CD39, measured by flow cytometry on day 10 after T cell activation, prior to downstream experiments. […] FIG. 2G is a graph showing CD93 expression on AML cell lines, measured by flow cytometry after staining with biotinylated F11 antibody followed by streptavidin-APC. […]

EC50 (read off the curve) [ng/mL] | Binder
~30 | humanized F11 monoclonal antibody (HuF11-G1) (antibody, V domains shown, also called humanized F11 antibody) VH: QVQLVQSGAEVKKPGASVKVSCKASGYTFTDYHMDWVKQAPGQGLEWIGDIDPYNGDTVFNQKFKGKATMTRDTSISTAYMELSRLRSDDTAVYYCTRGGDYWGQGTLVTVSS VL: DIVMTQTPLSLSVTPGQPASISCRSSQTLVHSNGNTYLHWYLQKPGQPPQLLIYKVSNRFSGVPDRFSGSGSGTDFTLKISRVEAEDVGVYFCSQSTHVPFTFGQGTKLEIK
~30 | humanized F11 monoclonal antibody (HuF11-G1 TM) (antibody, V domains shown, also called humanized F11 antibody) VH: QVQLVQSGAEVKKPGASVKVSCKASGYTFTDYHMDWVKQAPGQGLEWIGDIDPYNGDTVFNQKFKGKATMTRDTSISTAYMELSRLRSDDTAVYYCTRGGDYWGQGTLVTVSS VL: DIVMTQTPLSLSVTPGQPASISCRSSQTLVHSNGNTYLHWYLQKPGQPPQLLIYKVSNRFSGVPDRFSGSGSGTDFTLKISRVEAEDVGVYFCSQSTHVPFTFGQGTKLEIK
